# Reference: the supplement of paper PMC9170038
# Tested on: MS2 coat protein
# Assay: apparent KD of MS2 coat protein; designed switch direction (-1 OFF switch, 1 ON switch): -1; higher = weaker reporter binding
# In short: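 Designed RNA switches were transcribed on Illumina chips by stalled E. coli RNA polymerase and titrated with SNAP-549-labelled MS2 coat protein from 0.7 or 1.5 nM, doubling to 3 µM. Step length ran from 0.8–1.5 h at the lowest concentration to 10–20 min at the highest. The apparent KD is the median over clusters for each design, from curve-fitted normalised cluster fluorescence.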
# [1] = Eterna round: R95, input ligand: microRNA oligo, concentration not stated
# [2] = input ligand: microRNA oligo, concentration not stated
# [3] = Eterna round: R95, input ligand: FMN 200 uM
# [4] = Eterna round: R95, input ligand: none
sequence,measurement,setting,value
"CGCGCCUUUGUCAGGAUAUUCGGGCGAGCCCGGCCGGAGAAGGGACUUGAGGAUCACCCAAGUGACGCGAAAAC [Beenusre] (Eterna round: R97, puzzle: Brourd's mod of Exclusion 4)",apparent KD of MS2 coat protein,input ligand: FMN 200 uM,20.8 nM
same,apparent KD of MS2 coat protein,input ligand: none,20.6 nM
"CGCGGCGCGUAGGAUAUUGGGUCGGACGGCAAAUAAGAAGGACGCACAUGAGGAUCACCCAUGUCGAAAGCACA [Eternabot (Original) Solution 17] (Eterna round: R97, puzzle: Exclusion 6)",apparent KD of MS2 coat protein,input ligand: FMN 200 uM,27.8 nM
same,apparent KD of MS2 coat protein,input ligand: none,33.7 nM
CGCGUAUGAGGAUAUGCAUAAAAGGGUGCACUGAGUCUGAGACAUGAGGAUCACCCAUGUAGAAGGCGUGCGCU [Beerteon] (puzzle: Exclusion 2),apparent KD of MS2 coat protein,[1],13.6 nM
"CGGAUACAUGAGGAUCACCCAUGUGAGGAUAUCGUACGUUCGUCGAUAGACGAUCGUACGAGAAGGCAUGACCG [Mat - Exclusion 1 - Eli Mod - D34] (Eterna round: R97, puzzle: Exclusion 1)",apparent KD of MS2 coat protein,input ligand: FMN 200 uM,71.3 nM
same,apparent KD of MS2 coat protein,input ligand: none,200 nM
"CGGCAUGUCUGAGGAUAUCUGCACGAUUAGUGCAGAGAAGGCAGAACAUGAGGAUCACCCAUGUAGAUCAUUAACCGAUUAAUU [ENG1/7-A1] (Eterna round: R96, puzzle: Exclusion NG 1)",apparent KD of MS2 coat protein,input ligand: FMN 200 uM,275 nM
same,apparent KD of MS2 coat protein,[2],127 nM
same,apparent KD of MS2 coat protein,input ligand: none,194 nM
"CGGCCGUUUGUAAGGAUAUAACUAGUUGCGACCAGUUAGAAGGUACAUGAGGAUCACCCAUGUCUUCCAGUGGC [Eternabot (L1) Solution 76] (Eterna round: R97, puzzle: Brourd's mod of Exclusion 4)",apparent KD of MS2 coat protein,input ligand: FMN 200 uM,16.2 nM
same,apparent KD of MS2 coat protein,input ligand: none,15.1 nM
"CGGCGGGCAGGAUAUGGUAAUAAUUACAUGAGGAUCACCCAUGUGGAUAUAUGGGAAUAACCAGAAGGGCUUGUUG [-20.1, -20 kcal, A 30%] (Eterna round: R97, puzzle: Exclusion 5)",apparent KD of MS2 coat protein,input ligand: FMN 200 uM,63.2 nM
same,apparent KD of MS2 coat protein,input ligand: none,74.4 nM
CGGGAGGAAGGAUAUACACGGCCUCCUAGAAUAAAUCCUGGACAUGAGGAUCACCCAUGUAGAAGGUCCACCGA [Tiuslala] (puzzle: Exclusion 2),apparent KD of MS2 coat protein,[1],17.3 nM
"CGGGCAGCAGGAUAUACAUAGGUCAACAGAAAUGAGUAUUGACAUGAGGAUCACCCAUGUAGAAGGGCUGUACC [Eternabot (L2) Solution 96] (Eterna round: R97, puzzle: Exclusion 2)",apparent KD of MS2 coat protein,input ligand: FMN 200 uM,412 nM
same,apparent KD of MS2 coat protein,input ligand: none,391 nM
"CGGGCGCGUGUAGGAUAUCGGGCCCGGUGGGCCCGAGAAGGACAUGAGGAUCACCCAUGUGCCCGGGUUGCCCGGGCGCGCCCG [-50, -49 kcal and 14% A] (Eterna round: R96, puzzle: Exclusion NG 1)",apparent KD of MS2 coat protein,input ligand: FMN 200 uM,14.6 nM
same,apparent KD of MS2 coat protein,[2],7.82 nM
same,apparent KD of MS2 coat protein,input ligand: none,14.5 nM
"CGGUAGUGCUCAGGAUAUACAUGAGGAUCACCCAUGUAACUAGAAUCGGUCGUCCGAUCAGUGGUGUAGAAGGGAGGCUGGCUG [random 1, A 25%] (Eterna round: R96, puzzle: Exclusion NG 2)",apparent KD of MS2 coat protein,input ligand: FMN 200 uM,32.1 nM
same,apparent KD of MS2 coat protein,[2],22 nM
same,apparent KD of MS2 coat protein,input ligand: none,31.5 nM
CGUACUAAAGUCAGGAUAUUGUCUCGGAUACGAAACAAGAAGGGACAUGAGGAUCACCCAUGUAGAUAGUACGA [Malc #30 mod 5] (puzzle: Brourd's mod of Exclusion 4),apparent KD of MS2 coat protein,[3],16.9 nM
same,apparent KD of MS2 coat protein,[1],23.4 nM
same,apparent KD of MS2 coat protein,[4],26.6 nM
CGUACUGAAGUCAGGAUAUUGUCUCGGAUACGAAACAAGAAGGGACAUGAGGAUCACCCAUGUGGACAGUACGA [Malc #30 mod 6] (puzzle: Brourd's mod of Exclusion 4),apparent KD of MS2 coat protein,[3],38.3 nM
same,apparent KD of MS2 coat protein,[1],44 nM
same,apparent KD of MS2 coat protein,[4],36.7 nM
"CGUCUGUCAGGAUAUGGUUACAUAGACAUGAGGAUCACCCAUGUGACGUGGGACUAGUGAUUAGAAGGGACGAACG [EX5 #69] (Eterna round: R97, puzzle: Exclusion 5)",apparent KD of MS2 coat protein,input ligand: FMN 200 uM,36.5 nM
same,apparent KD of MS2 coat protein,input ligand: none,31.7 nM
